Assays:
[1] = molecular target: T1, NGF (nerve growth factor) (human, UniProt P01138 P01138:122-241); test: cell_activity; neurite outgrowth, NGF 0.38 nM; TF-1 IC50 0.044 nM; settings: tags: human NGF; chain copies: 2
[2] = molecular target: T1, NGF (nerve growth factor); test: cell_activity; neurite outgrowth, NGF 0.38 nM; TF-1 IC50 0.122 nM; settings: tags: human NGF; chain copies: 2
Protocol: (§1) The neurite outgrowth inhibitory activity of the aptamer obtained in Example 1 was evaluated by using Neuroscreen-1 cell, which is a subclone of PC-12 cells.
(§2) The cells (2500 cells per well) were cultured for one day in an RPMI-1640 medium containing 2.5% horse serum and 1.25% fetal bovine serum in a 96 well flat-bottom plate coated with collagen type IV. […] Two days later, the cytoplasm and nuclei were stained using Cellomics Neurite Outgrowth Kit (manufactured by Thermo Scientific), and neurite length per cell was measured by Cellomics ArrayScan VTI (manufactured by Thermo Scientific). With the neurite length per cell obtained by the addition of NGF alone as inhibitory activity 0%, and that of the cell obtained by NGF free culture for 2 days as inhibitory activity 100%, the inhibitory activity of the aptamer was calculated from the neurite length per cell obtained by culturing with the addition of NGF and the aptamer in mixture. When the inhibitory activity was 0% or below, ‘0%’ is indicated.

[3] = molecular target: T1, NGF (nerve growth factor); test: cell_activity; neurite outgrowth, NGF 0.38 nM; TF-1 IC50 0.074 nM; settings: tags: human NGF; chain copies: 2
Protocol: as §1, §2

[4] = molecular target: T1, NGF (nerve growth factor); test: cell_activity; neurite outgrowth, NGF 0.38 nM; TF-1 IC50 0.239 nM; settings: tags: human NGF; chain copies: 2
Protocol: as §1, §2

[5] = molecular target: T1, NGF (nerve growth factor); test: cell_activity; neurite outgrowth, NGF 0.38 nM; TF-1 IC50 0.319 nM; settings: tags: human NGF; chain copies: 2
Protocol: as §1, §2

[6] = molecular target: T1, NGF (nerve growth factor); test: cell_activity; neurite outgrowth, NGF 0.38 nM; TF-1 IC50 0.218 nM; settings: tags: human NGF; chain copies: 2
Protocol: as §1, §2

[7] = molecular target: T1, NGF (nerve growth factor); test: cell_activity; neurite outgrowth, NGF 0.38 nM; TF-1 IC50 0.156 nM; settings: tags: human NGF; chain copies: 2
Protocol: as §1, §2

[8] = molecular target: T1, NGF (nerve growth factor); test: cell_activity; neurite outgrowth, NGF 0.38 nM; TF-1 IC50 0.159 nM; settings: tags: human NGF; chain copies: 2
Protocol: as §1, §2

[9] = molecular target: T1, NGF (nerve growth factor); test: cell_activity; neurite outgrowth, NGF 0.38 nM; TF-1 IC50 0.193 nM; settings: tags: human NGF; chain copies: 2
Protocol: as §1, §2

[10] = molecular target: T1, NGF (nerve growth factor); test: cell_activity; neurite outgrowth, NGF 0.38 nM; TF-1 IC50 0.069 nM; settings: tags: human NGF; chain copies: 2
Protocol: as §1, §2

[11] = molecular target: T1, NGF (nerve growth factor); test: cell_activity; neurite outgrowth, NGF 0.38 nM; TF-1 IC50 0.104 nM; settings: tags: human NGF; chain copies: 2
Protocol: as §1, §2

[12] = molecular target: T1, NGF (nerve growth factor); test: cell_activity; neurite outgrowth, NGF 0.38 nM; TF-1 IC50 0.064 nM; settings: tags: human NGF; chain copies: 2
Protocol: as §1, §2

[13] = molecular target: T1, NGF (nerve growth factor); test: cell_activity; neurite outgrowth, NGF 0.38 nM; TF-1 IC50 0.285 nM; settings: tags: human NGF; chain copies: 2
Protocol: as §1, §2

[14] = molecular target: T1, NGF (nerve growth factor); test: cell_activity; neurite outgrowth, NGF 1.1 nM; SPR binding; TF-1 IC50 >30 nM; settings: tags: amine-coupled to CM5 chip in SPR; soluble in cell assays; chain copies: 2
Protocol: as §1, §2

[15] = molecular target: T1, NGF (nerve growth factor); test: cell_activity; neurite outgrowth, NGF 1.1 nM; SPR binding; blocks NGF-TrkA; TF-1 IC50 >30 nM; settings: tags: amine-coupled to CM5 chip in SPR; soluble in cell assays; chain copies: 2
Protocol: as §1, §2

T1 sequence (P01138 122-241, one chain of several): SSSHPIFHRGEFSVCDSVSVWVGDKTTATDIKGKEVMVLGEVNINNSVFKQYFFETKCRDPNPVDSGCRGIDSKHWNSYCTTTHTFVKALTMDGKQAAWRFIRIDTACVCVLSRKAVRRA

B1: aptamer ID 26(10) (ssRNA)
RNA: GGGAGACUCGCCAGAGUUGAAAGAAACCCAAAUAAGUGUGCGCAC
modifications: 5' and 3' idT; 2'-F all pyrimidines; 2'-OMe all purines except ribo g3,g5,g19,a20,a21,a22,a24
Question: With B1 as the binder, how does the IC50 [1] read?
Answer: 47 pM

B2: aptamer ID 26(56) (mixed)
RNA: GGGAGACUCGCCAGAGUUGAAAGAAACCCAAAUAAGUGUGCGCAC
modifications: 5' and 3' idT; 2'-OMe purines except ribo g3,g19,a20,a26; 2'-F c27,c28,c41,c43; dC29,dU39; other pyrimidines 2'-OMe
Question: With B2 as the binder, how does the IC50 [2] read?
Answer: 154 pM

B3: aptamer ID 26(47) (ssRNA)
RNA: GGGAGACUCGCCAGAGUUGAAAGAAACCCAAAUAAGUGUGCGCAC
modifications: 5' and 3' idT; 2'-OMe purines except ribo g3,g19,a20,a26; 2'-OMe c7,c11,c12,u17,u33,u37,c45; other pyrimidines 2'-F
Question: Which IC50 [3] does the source give for B3 here?
Answer: 65 pM

B4: aptamer ID 26(34) (ssRNA)
RNA: GGGAGACUCGCCAGAGUUGAAAGAAACCCAAAUAAGUGUGCGCAC
modifications: as 26(19) (5' and 3' idT; 2'-F pyrimidines; 2'-OMe purines except ribo g3,g19,a20,a26) but u33 is 2'-OMe
Question: Which IC50 [4] does the source give for B4 here?
Answer: 247 pM

B5: aptamer ID 26(70) (ssRNA)
RNA: GGGAGACUCGCCAGAGUUGAAAGAAACCCAAAUAAGUGUGCGCAC
modifications: 5' PEG80TS4 via ssH linker; 3' idT; 2'-F all pyrimidines; 2'-OMe purines except ribo g3,g19,a20,a26
Question: B5 was tested. Which IC50 [5] did it give?
Answer: 126 pM

B6: aptamer ID 26(39) (ssRNA)
RNA: GGGAGACUCGCCAGAGUUGAAAGAAACCCAAAUAAGUGUGCGCAC
modifications: as 26(19) (5' and 3' idT; 2'-F pyrimidines; 2'-OMe purines except ribo g3,g19,a20,a26) but c7 is 2'-OMe; PS between a25 and a26
Question: For B6, which IC50 [6] is on record?
Answer: 168 pM

B7: aptamer ID 26(24) (mixed)
RNA: GGGAGACUCGCCAGAGUUGAAAGAAACCCAAAUAAGUGUGCGCAC
modifications: as 26(19) (5' and 3' idT; 2'-F pyrimidines; 2'-OMe purines except ribo g3,g19,a20,a26) but c11 is dC
Question: Which IC50 [7] does the source give for B7 here?
Answer: 226 pM

B8: aptamer ID 26(23) (mixed)
RNA: GGGAGACUCGCCAGAGUUGAAAGAAACCCAAAUAAGUGUGCGCAC
modifications: as 26(19) (5' and 3' idT; 2'-F pyrimidines; 2'-OMe purines except ribo g3,g19,a20,a26) but c9 is dC
Question: B8 was tested. Which IC50 [8] did it give?
Answer: 229 pM

B9: aptamer ID 26(32) (ssRNA)
RNA: GGGAGACUCGCCAGAGUUGAAAGAAACCCAAAUAAGUGUGCGCAC
modifications: as 26(19) (5' and 3' idT; 2'-F pyrimidines; 2'-OMe purines except ribo g3,g19,a20,a26) but c11 is 2'-OMe
Question: With B9 as the binder, how does the IC50 [9] read?
Answer: 220 pM

B10: aptamer ID 26(48) (ssRNA)
RNA: GGGAGACUCGCCAGAGUUGAAAGAAACCCAAAUAAGUGUGCGCAC
modifications: 5' and 3' idT; 2'-OMe purines except ribo g3,g19,a20,a26; 2'-OMe c7,c11,c12,u17,u18,u33,u37,c45; other pyrimidines 2'-F
Question: Which IC50 [10] does the source give for B10 here?
Answer: 53 pM

B11: aptamer ID 26(19) (ssRNA)
RNA: GGGAGACUCGCCAGAGUUGAAAGAAACCCAAAUAAGUGUGCGCAC
modifications: 5' and 3' idT; 2'-F all pyrimidines; 2'-OMe all purines except ribo g3,g19,a20,a26
Question: Which IC50 [11] does the source give for B11 here?
Answer: < 10 pM

B12: aptamer ID 26(65) (mixed)
RNA: GGGAGACUCGCCAGAGUUGAAAGAAACCCAAAUAAGUGUGCGCAC
modifications: 5' PEG80TS4 via ssH linker; 3' idT; 2'-OMe purines except ribo g3,g19,a20,a26; 2'-F c28,c41,c43; dC27,dC29; other pyrimidines 2'-OMe
Question: B12 was tested. Which IC50 [12] did it give?
Answer: 91 pM

B13: aptamer ID 26(67) (ssRNA)
RNA: GGGAGACUCGCCAGAGUUGAAAGAAACCCAAAUAAGUGUGCGCAC
modifications: 5' PEG40TS2 via ssH linker; 3' idT; 2'-F all pyrimidines; 2'-OMe purines except ribo g3,g19,a20,a26
Question: How did the IC50 [13] turn out when B13 was run?
Answer: 153 pM

B14: aptamer ID 43 (ssRNA)
RNA: GGGAGAACUUCGACCAGAAGUCGAUAACGAACAAAACUCCCAAAUAUGUGCGCAUACA
modifications: 2'-F at all pyrimidines
Question: How did the IC50 [14] turn out when B14 was run?
Answer: < 3000 pM

B15: aptamer ID 32 (ssRNA)
RNA: GGGAGAACUUCGACCAGAAGUCGAUAACGAACAAAACUCCCAAAGGAAUAUAUGUGCGCAUACA
modifications: 2'-F at all pyrimidines
Question: Which IC50 [15] does the source give for B15 here?
Answer: 1000 pM

Reference: patent US20130052176, “APTAMER FOR NGF AND USE THEREOF” (SHIONOGI & CO., LTD, published 2013)
